Source: publication PMC9034101

Target: Cy5 N-terminal-labeled WWP2 (human) (UniProt O00308)
Test: MST; 10 nM N-terminal Cy5-labeled WWP2, NDP52 (up to 48 uM) or OPTN (up to 60 uM) in two-fold serial dilution; 25 mM Hepes pH 7.8, 250 mM NaCl, 1 mM TCEP, 0.5 mg/ml BSA, 0.05% Tween-20; room temperature; apparent KD, quadratic model

B1: NDP52 (natural protein)
chain: MEETIKDPPTSAVLLDHCHFSQVIFNSVEKFYIPGGDVTCHYTFTQHFIPRRKDWIGIFRVGWKTTREYYTFMWVTLPIDLNNKSAKQQEVQFKAYYLPKDDEYYQFCYVDEDGVVRGASIPFQFRPENEEDILVVTTQGEVEEIEQHNKELCKENQELKDSCISLQKQNSDMQAELQKKQEELETLQSINKKLELKVKEQKDYWETELLQLKEQNQKMSSENEKMGIRVDQLQAQLSTQEKEMEKLVQGDQDKTEQLEQLKKENDHLFLSLTEQRKDQKKLEQTVEQMKQNETTAMKKQQELMDENFDLSKRLSENEIICNALQRQKERLEGENDLLKRENSRLLSYMGLDFNSLPYQVPTSDEGGARQNPGLAYGNPYSGIQESSSPSPLSIKKCPICKADDICDHTLEQQQMQPLCFNCPICDKIFPATEKQIFEDHVFCHSL
Kd: 19 µM
